Assays:
[1] = Partition coefficient (log P), n-octanol/PBS; assay type: physicochemical; conditions: shake-flask n-octanol/PBS (0.1 mol/L, pH 7.4), 14.8 MBq in 100 µL, vortexed 2 min at room temperature, centrifuged 3000 rpm 5 min, γ-counter CPM; mean ± SD, repeated three times; read-out: Log p
Procedure: In a 15 mL centrifuge tube, 2.9 mL of PBS (0.1 mol/L, pH = 7.4) and 3 mL of n-octanol were added. [^68Ga]Ga-TATE-46, [^68Ga]Ga-DOTA-TATE, or [^68Ga]Ga-FAPI-46 (14.8 MBq, 100 µL) were added to each tube. The mixture was vortexed at room temperature for 2 min to ensure thorough blending, and then centrifuged at room temperature (effective centrifuge radius 12 cm, 3000 rpm) for 5 min. After allowing sufficient time for phase separation, three 500 µL samples were taken from each layer. The radioactivity of each sample was measured using a γ-counter (count per minute, CPM), and log p = log (n-octanol CPM/water CPM) was calculated. The experiment was repeated three times.

[2] = Pharmacokinetics, blood time-activity curves, two-compartment model; assay type: in vivo, BALB/c mice; conditions: female healthy BALB/c mice, n = 3 per group, 0.37 MBq tail vein, blood 2-120 min, γ-counter, two-compartment model (WinNonlin)
Procedure: Nine female healthy BALB/c mice were randomly divided into three groups (with three mice in each group) using a random number table. Each group was administered 100 µL of [^68Ga]Ga-TATE-46, [^68Ga]Ga-DOTA-TATE, or [^68Ga]Ga-FAPI-46 (0.37 MBq) via tail vein injection. Blood samples (5 µL × 3) were collected at 2, 5, 10, 15, 30, 60, 90, and 120 min post-injection via tail vein. The radioactivity in the blood was measured with a γ-counter and converted to blood radioactivity concentration (kBq/mL). The pharmacokinetic data (time–blood radioactivity concentration) were analyzed by using the two-compartment model in the pharmacokinetic software WinNonlin (Certara, Louis, MO, USA, 2018-06) to determine the distribution and clearance half-life parameters of the radiopharmaceuticals in the mice.

[3] = test system: NCI-H727 tumor-bearing mice; assay: Micro PET imaging with ROI quantification and blocking, NCI-H727 tumor-bearing mice; assay type: in vivo, BALB/c nude mice
Procedure: Female BALB/c nude mice were obtained from Charles River Laboratories (Beijing, China). […] Approximately 5 × 10^6 cells were implanted into the right shoulder of each mouse to establish an NCI-H727 tumor model and Mc38 tumor model. Once the tumor volume reached 200–300 mm^3, the mice were used for imaging or biodistribution studies. All animal experiments were carried out in accordance with the National Institutes of Health Guidelines for the Care and Use of Laboratory Animals and were approved by the Animal Protection and Utilization Committee of the General Hospital of the PLA (Approval No.: S2023-209-1).
Each set of NCI-H727 tumor xenograft models (n = 3) was administered with [^68Ga]Ga-TATE-46, [^68Ga]Ga-DOTA-TATE, or [^68Ga]Ga-FAPI-46 (5.55–7.4 MBq, 150 µL/mouse) through the tail vein. Static PET scans were performed at 30 min, 1 h, 2 h, and 4 h after injection for 10 min each. In blocking studies, unlabeled precursors (FAPI-46, DOTA-TATE, FAPI-46 + DOTA-TATE, 10 mg/kg) were co-injected with [^68Ga]Ga-TATE-46. After image acquisition, the images were reconstructed using the three-dimensional ordered subset expectation maximization (3D-OSEM) algorithm and analyzed on the Recon/Avator-s-10 workstation. The percentage of injected dose per gram of tissue (%ID/g) was determined by delineating regions of interest.

[4] = test system: NCI-H727 cells (SSTR2/FAP, positive); assay: Cell uptake and blocking in NCI-H727 cells; assay type: cell-based; conditions: 1 h
Procedure: The NCI-H727 and Mc38 cell lines were supplied by the Stem Cell Bank of the Chinese Academy of Sciences and were cultivated in Roswell Park Memorial Institute (RPMI-1640) medium with 10% (v/v) fetal bovine serum (FBS) at 37 °C with 5% CO2. All cells were cultured until they reached 80–90% confluence before undergoing trypsinization.
NCI-H727 cells were placed in a 24-well plate and cultivated for 24 h. The original medium was removed, and fresh RPMI-1640 was added. Then, 100 µL of [^68Ga]Ga-TATE-46, [^68Ga]Ga-DOTA-TATE, or [^68Ga]Ga-FAPI-46 (1.48×10^4 Bq) was added to each well, and the cells were incubated for 30 min, 1 h, 2 h, and 4 h (with three replicates for each time point). The culture medium was taken away, and the cells were washed twice with cold PBS (pH 7.4). Then, the cells were lysed using 0.5 mL of 1 M NaOH.
In blocking experiments, an excessive amount of unlabeled FAPI-46, DOTA-TATE, or FAPI-46 + DOTA-TATE (10 µg/well) was added as an inhibitor along with [^68Ga]Ga-TATE-46 to the cells. After 1 h, the cells were processed using the same method. Finally, the cell lysates were gathered, and the radioactivity was measured using a γ-counter. Mc38 cells were used as a negative control, with only [^68Ga]Ga-TATE-46 (1.48 × 10^4 Bq/well, 100 µL) added, and the rest of the procedure was followed as described above.

C[C@@H](O)[C@H](NC(=O)[C@@H]1CSSC[C@H](NC(=O)[C@@H](Cc2ccccc2)NC(=O)CCCCCNC(=O)CCCCCNC(=O)[C@H](Cc2ccccc2)NC(=O)C(CCC(=O)N[C@@H](Cc2ccccc2)C(=O)NCCCCCC(=O)NCCCCCC(=O)N2CCN(CCCN(C)c3ccc4nccc(C(=O)NCC(=O)N5CC(F)(F)C[C@H]5C#N)c4c3)CC2)NC(=O)CN2CCN(CC(=O)O)CCN(CC(=O)O)CCN(CC(=O)O)CC2)C(=O)N[C@@H](Cc2ccc(O)cc2)C(=O)N[C@H](Cc2c[nH]c3ccccc23)C(=O)N[C@@H](CCCCN)C(=O)N[C@@H]([C@@H](C)O)C(=O)N1)C(=O)O (stereo partly shown) [[^68Ga]Ga-TATE-46, metal not drawn]
logD [1]: -0.2 ± 0.05
distribution half-life [2]: 1.79 min
elimination half-life [2]: 37.75 min
tumor uptake in NCI-H727 tumors (PET ROI) compared with [68Ga]Ga-FAPI-46 and [68Ga]Ga-DOTA-TATE ([3]; 5.55–7.4 MBq, 30 min-4 h p.i., n = 3, p < 0.001): significantly higher
tumor uptake (PET) on co-injection with blocking agents DOTA-TATE, FAPI-46, or DOTA-TATE + FAPI-46 ([3]; blockers 10 μg/g each, NCI-H727 tumors, 1 h p.i., all p < 0.001): significantly reduced
cellular uptake in NCI-H727 cells compared with [68Ga]Ga-DOTA-TATE and [68Ga]Ga-FAPI-46 ([4]; 1.48×10^4 Bq/well, 30 min, 2 h, 4 h, γ-counter, n = 3, all p < 0.001): significantly higher
cellular uptake in NCI-H727 cells on co-incubation with unlabeled TATE, FAPI-46, or TATE + FAPI-46 ([4]; blocker at 1000 times the molar amount (10 µg/well), all p < 0.01): significant reduction
